Reference: the supplement of paper PMC7877785
± gives the uncertainty stated by the source.

Experiment: self-splicing fitness, log relative to wild type (ln ratio); higher = more splicing; Tetrahymena group I intron in knt gene, E. coli kanamycin selection, DiMSum; sequences stand for … in CUCUCU…GGAGGGAAAAGUUAUCAGGCAUGCACCUGGUAGCUAGUCUUUAAACCAAUAGAUUGCAUCGGUUUAAAAGGCAAGACCGUCAAAUUGCGGGAAAGGGGUCAACAGCCGUUCAGUACCAAGUCUCAGGGGAAACUUUGAGAUGGCCUUGCAAAGGGUAUGGUAAUAAGCUGACGGACAUGGUCCUAACCACGCAGCCAAGUCCUAAGUCAACAGAUCUUCUGUUGAUAUGGAUGCAGUUCACAGACUAAAUGUCGGUCGGGGAAGAUGUAUUCUUCUCAUAAGAUAUAGUCGGACCUCUCCUUAAUGGGAGCUAGCGGAUGAAGUGAUGCAACACUGGAGCCGCUGGGAACUAAUUUGUAUGCGAAAGUAUAUUGAUUAGUUUUGGAGUACUCGUGGUCG
Summary of the method: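 DiMSum derived fitness as the error-weighted combination of fold changes across replicates, kanamycin versus no kanamycin, normalised to wild type. E. coli BL21(DE3) held the library, which randomised all eight P1ex-region intron nucleotides within the knt kanamycin-resistance gene on pET-22b(+). Six replicate transformations grew overnight at 37°C or 30°C on LB agar with or without 25 μg/mL kanamycin, also containing 100 μg/mL carbenicillin, 50 μM IPTG and 0.2% rhamnose, and pooled colonies were amplicon-sequenced on an Illumina HiSeq 2500.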

Sequence	self-splicing fitness (ln) (30 °C)	self-splicing fitness (ln) (37 °C)
AACCAGCAAUAUUACGUCCG	-1.56 ± 0.073	-0.0163 ± 0.091
AACCAGCAAUAUUACGUUAA	-1.83 ± 0.086	-1.26 ± 0.085
AACCAGCAAUAUUACGUUCG	-2.59 ± 0.15	-1.63 ± 0.13
AACCAGCAAUAUUACGUUUG	-2.83 ± 0.077	-2.31 ± 0.1
AACGAGCAAUAUUACGAAUA	–	-1.63 ± 0.34
AACGAGCAAUAUUACGACGG	-4.27 ± 0.37	-2.04 ± 0.23
AACGAGCAAUAUUACGAUAG	-3.04 ± 0.22	-2.49 ± 0.22
AACGAGCAAUAUUACGAUGU	-2.35 ± 0.2	-1.99 ± 0.17
AACGAGCAAUAUUACGCACA	-2.86 ± 0.23	-2.09 ± 0.21
AACGAGCAAUAUUACGCGUU	-4.34 ± 0.2	-2.42 ± 0.14
AACGAGCAAUAUUACGCUCG	-2.55 ± 0.35	–
AACGAGCAAUAUUACGCUGG	-3.72 ± 0.31	-0.45 ± 0.16
AACGAGCAAUAUUACGGAAC	-2.26 ± 0.23	–
AACGAGCAAUAUUACGGAAU	-2.84 ± 0.24	-1.81 ± 0.22
AACGAGCAAUAUUACGGACC	-2.49 ± 0.15	-1.55 ± 0.22
AACGAGCAAUAUUACGGAGG	-2.79 ± 0.19	-2.38 ± 0.27
AACGAGCAAUAUUACGGAUG	-3.34 ± 0.31	–
AACGAGCAAUAUUACGGCGA	-1.95 ± 0.23	-0.978 ± 0.2
AACGAGCAAUAUUACGGGAA	-2.18 ± 0.22	-2.74 ± 0.27
AACGAGCAAUAUUACGGGGG	-3.29 ± 0.26	-3.01 ± 0.37
AACGAGCAAUAUUACGGUGG	-3.68 ± 0.32	-2.05 ± 0.34
AACGAGCAAUAUUACGUACG	-4.19 ± 0.46	-1.63 ± 0.35
AACGAGCAAUAUUACGUCCU	-1.04 ± 0.079	-0.143 ± 0.095
AACGAGCAAUAUUACGUCGU	-2.5 ± 0.23	-2.9 ± 0.31
AACGAGCAAUAUUACGUGCA	-2.58 ± 0.13	-2.01 ± 0.18

Sequence	self-splicing fitness (ln) (30 °C)	self-splicing fitness (ln) (37 °C)
AACGAGCAAUAUUACGUUAU	-3.69 ± 0.16	-1.52 ± 0.11
AACUAGCAAUAUUACGAAUG	-2.36 ± 0.11	-1.69 ± 0.12
AACUAGCAAUAUUACGAUCC	0.0588 ± 0.16	0.358 ± 0.19
AACUAGCAAUAUUACGAUUG	-2.97 ± 0.12	-1.23 ± 0.12
AACUAGCAAUAUUACGCAGC	-3.32 ± 0.25	-2.98 ± 0.43
AACUAGCAAUAUUACGCCAC	–	-1.79 ± 0.36
AACUAGCAAUAUUACGCGUG	-1.53 ± 0.08	-0.485 ± 0.09
AACUAGCAAUAUUACGCGUU	-3.51 ± 0.19	-2.48 ± 0.29
AACUAGCAAUAUUACGCUUU	-2.44 ± 0.097	-1.71 ± 0.12
AACUAGCAAUAUUACGGAGG	-3.08 ± 0.2	-1.99 ± 0.22
AACUAGCAAUAUUACGGCUG	-1.02 ± 0.098	-0.0943 ± 0.15
AACUAGCAAUAUUACGGGAA	-1.5 ± 0.074	-1.13 ± 0.084
AACUAGCAAUAUUACGGGAC	-3.22 ± 0.3	-1.08 ± 0.17
AACUAGCAAUAUUACGGGCG	-0.139 ± 0.081	-0.0101 ± 0.11
AACUAGCAAUAUUACGGGGG	-2.73 ± 0.2	-1.53 ± 0.22
AACUAGCAAUAUUACGGGUA	-0.761 ± 0.072	-0.0817 ± 0.07
AACUAGCAAUAUUACGUGAG	-1.28 ± 0.075	-1.03 ± 0.1
AACUAGCAAUAUUACGUGCC	-1.39 ± 0.12	-0.755 ± 0.13
AACUAGCAAUAUUACGUGUC	-4.26 ± 0.19	-1.25 ± 0.1
AACUAGCAAUAUUACGUUCC	-2.63 ± 0.22	-1.93 ± 0.24
AACUAGCAAUAUUACGUUUU	-3.52 ± 0.097	-1.32 ± 0.075
AAGAAGCAAUAUUACGAAAA	-1.8 ± 0.17	-1.57 ± 0.18
AAGAAGCAAUAUUACGAAGC	-3.02 ± 0.18	-2.43 ± 0.28
AAGAAGCAAUAUUACGAUCA	-0.455 ± 0.08	-0.229 ± 0.099
